According to the DeepSol protein solubility set:

test: soluble on expression in E. coli; label from the status in PepcDB or PDB records

Sequence	soluble on expression in E. coli
MGHHHHHHSHMPARTDSVIIADQTPTPTRFLKNCEEVGLFNELASSFEHEFKKAADEDEKKARSRTVAKKLVAAAGPLDMSLPSTPDIKIKEEEPVEVDSSPPDSPASSPCSPPLKEKEVTPKPVLISTPTPTIVRPGSLPLHLGYDPLHPTLPSPTSVITQAPPSNRQMGSPTGSLPLVMHLANGQTMPVLPGPPVQMPSVISLARPVSMVPNIPGIPGPPVNSSGSISPSGHPIPSEAKMRLKATLTHQVSSINGGCGMVVGTASTMVTARPEQSQILIQHPDAPSPAQPQVSPAQPTPSTGGRRRRTVDEDPDERRQRFLERNRAAASRCRQKRKLWVSSLEKKAEELTSQNIQLSNEVTLLRNEVAQLKQLLLAHKDCPVTALQKKTQGYLESPKESSEPTGSPAPVIQHSSATAPSNGLSVRSAAEAVATSVLTQMA	soluble
MISNNTRRVYRISFSFFEQYCLEHNLQSLPADPRSIISFIGHQKELLQASTGMQLSKQTLTTRIAAIRFYHIQAGFPTPTEHPQVIRVMRGLSRNHHRLVQDYDQQPLEHHHHHH	not soluble
MSSLGNQSEKNSNNKFSDNVPLAQHEIWKEKYESLVTEHENLVKEHETLIKTLELIEKHEITLEDLVKKKQREALVGKEEIEKFDKEIGERKKMQEMLDKDLEYLKSCEETVMNGMSSGPSGARVADKRNVNKFESQEGNFKCFLICV	not soluble
MEYEWKPDEQGLQQILQLLKESQSPDTTIQRTVQQKLEQLNQYPDFNNYLIFVLTKLKSEDEPTRSLSGLILKNNVKAHFQNFPNGVTDFIKSECLNNIGDSSPLIRATVGILITTIASKGELQNWPDLLPKLCSLLDSEDYNTCEGAFGALQKICEDSAEILDSDVLDRPLNIMIPKFLQFFKHSSPKIRSHAVACVNQFIISRTQALMLHIDSFTENLFALAGDEEPEVRKNVCRALVMLLEVRMDRLLPHMHNIVEYMLQRTQDQDENVALEACEFWLTLAEQPICKDVLVRHLPKLIPVLVNGMKYSDIDIILLKGDVEEDETIPDSEQDIRPRFHRSRTVAQQHDEDGIEEEDDDDDEIDDDDTISDWNLRKCSAAALDVLANVYRDELLPHILPLLKELLFHHEWVVKESGILVLGAIAEGCMQGMIPYLPELIPHLIQCLSDKKALVRSITCWTLSRYAHWVVSQPPDTYLKPLMTELLKRILDSNKRVQEAACSAFATLEEEACTELVPYLAYILDTLVFAFSKYQHKNLLILYDAIGTLADSVGHHLNKPEYIQMLMPPLIQKWNMLKDEDKDLFPLLECLSSVATALQSGFLPYCEPVYQRCVNLVQKTLAQAMLNNAQPDQYEAPDKDFMIVALDLLSGLAEGLGGNIEQLVARSNILTLMYQCMQDKMPEVRQSSFALLGDLTKACFQHVKPCIADFMPILGTNLNPEFISVCNNATWAIGEISIQMGIEMQPYIPMVLHQLVEIINRPNTPKTLLENTAITIGRLGYVCPQEVAPMLQQFIRPWCTSLRNIRDNEEKDSAFRGICTMISVNPSGVIQDFIFFCDAVASWINPKDDLRDMFCKILHGFKNQVGDENWRRFSDQFPLPLKERLAAFYGV	soluble
MGSDKIHHHHHHMGKPTGFMEYDRCEAASVEPKERIKNFNEFHVFLSKENQQKQAARCMDCGVPFCQSGMTIAGMTSGCPLHNLVPEWNDLVYTGNWEQAYNRLHKTNNFPEFTSRVCPALCEKACTCGHWGSPVSVRDNEHGIIETAYANGYAAPKPPKVRTGKKVAIIGSGPSGLAAADQLNQRGHDVTVYEREDRVGGLLMYGIPNMKLDKSIIDRKVNIMKEEGIHFVTGCDVGKDIKPAELYKKYDRVILCCGAKNPRDIKADGRDAKGIYFAVDYLTQNTKSLLNSNLTDGKFVSAKGKNVVIIGGGDTGNDCVGTAIRQGAKSVTQLEMMPCPPTERAANNPWPQWPKVLKTDYGQEEAIAVFGHDPRTYKTTVKEFHKDKNGNLKELTIVSLESKKDEKTGRFMMVPVEGSEKKLPAELVLIAAGFLGTESYVAKAFGVELNARTNVSTQEGHYATNVKNVYVAGDNHRGQSLVVWAIREGREAAREVDESLMGYSYLSVQ	not soluble
MTEQMWIEKLGLEAHPEGGYFKQTNKSEQLIPTKRGERALHTAILFLLNTESPSHFHRLKADELWFFHDGQPLTVHCIFPDGTYQAVQLGKDLVQGQQLSFSVPAGTIFGSTVATGFALVSCVVTPGFEFEDFELFTQAELLNDYPQHSEIIQHLAYRELPLEHHHHHH	soluble
MAQLFFRYGAMNSGKTIEILKVAHNYEEQDKSVIILTSGLDNRDGVGYVASRIGLKREATPVFDDTNIFEIVKQTNPDAACVLIDEAQFLKKHHVLELADIVDELKIPVMTFGLKNDFRNELFEGSKYLLLYADKIEEMKTICWFCRKKAIMNLRFHDGQPVYEGEQVQIGGNEAYYPVCRHHYFYPPKLTKLEHHHHHH	soluble
RIRKIIAGYQTELEASQEQEKKARQEKDELMRNMAHDLRTPLTGVMTYVDVMKLENEAYAENMKNLNFISEKVLDIRTQVDNLLDFSIAGSQRPVELDASMDVEYIFGDYLSDVCAQLMKSNYEVDAEGISFKQVKVAVNMAFLTRIFSNLTDNIYKYADNKKPVVMKTAFTKKTFSVEIGNGVCDNKTLLKSAGIGLKSVDAMMQRMNGSMSFKREHGKFWVKLEFPIV	not soluble
MGSDKIHHHHHHMQNQKPSVSLIRATSYEREALKNSLVTLLEPFGGMAAFVKPGQRVLLKPNLLTGARPTKECTTRAELVYAVAQMVIAAGGKPFLGDSPAFGSAKGVAIANGYQPLIQELNLPIIDFHGKRYETVSENFNHLLLSKEVIEADVVINLPKVKSHAQLTLTLGVKNLFGCVPGKMKAWWHMEAGKDADRFGEMLVETARAINPDLTILDGIIGHEGNGPSGGEPRALGILAAASDIFALDRAMVEILNVPPHQVPTVAASQRLRVCPELADVEFPNLHPDLLKIYDWQLPDKLMPIDFAMPRVIKSTFKHFYIRFIKEPMSAYGKQ	not soluble
MGSDKIHHHHHHMSLSSPASRPPLQIRATPVWSPQRDENAEHIVLSPDEQYELGRLGEIIEYRTAKLEILSQSEPADFLYLLIEGVVQACHSLKDGQRQIVAFYWPGDIFGLAEKGLYVNSSEAVTPCSVYRFPFRKLEKFLLEHPRIQQGFFVKAVHEIRTAQRHTITIGQLELPQRLAAFLVDCSEHDRYFDSESSTLSLPMLRYDIADYLGTSVEAVSRTFALLEKNGLVQRKGPRKLEISMKKLIDFSGIA	not soluble
MSDSDLKEIEKNAENIKLEPAEDEVNEEDQNEITIPELPEGRVLELRLLSNWGDSHYIGLNSVEIFTSTGERAVIDKIATNVTEYTGSLESLIVQRVHCKDAEKMWCAKTTEEKIVLTLELKETCKLALIRFWNYNASRVHAQIGVRYLEMYLDGVGIFRGELECAFSADSEFTPVMGETVLFTTSDNILELIALHDVCLISLPEEPISNSSIEMLKADHLTPYRPSTCEAKDAPSTPVTIVPPPIFRQTGTAYKHDVKTLHIELLSNWGMDGLIGLTGLELVDEHSQLIDESQYTVTTSDGNSDLSKKLFNGRNLTRDPHDMWLVDFDSKNFTTISITFHDNVALKAISVWNYNASFELSYAGVKAAKIYINGKLIKNVLLRKATGFVYFDYVQDVVLDPNNTERDFVPKGISQSIGGFVFQIRLLSTWGDEFYIGLNGIELYNRKGELMKIREHNLAAFPESVNILPNIKNDLRTSNNLITQPNDTDIARNMWLTALLPNRCARVFFVFDVQTYISKIVIYNYRKTPERGVRHISVTVDDLIIFSGEIPSSTATLTGNLEINLMDI	not soluble
MSLREEIKVAVLRMEGTNCEDETVKAFRSLGVEAEAVHIKQFYSDMIRFEEQRSVFDYQCLVFPGGFSAGDYIRAGAIFSARVKSVLRKDIEEFIKMGYPILGICNGFQVLVELGALPGFDEDKPLAEKPEMALAMNDSSRFECRPTLLKKESEKCIFVKNLKKDVVMFPVAHAEGKVVFPSGKEDEYLERLTSNDQIVFRYVDEKGDYAGYPWNPNGSFYNIAGICNATHTVFGLMPHPERAFFGYQVGRREGYGDGYCIFRSVVDYLEEGHHHHHH	not soluble
AMGTKSSAAVALKGLQFVTAKVGNDGWAAVEKRFNQLQVDGVLLRSRFGKCIGMDGSDEFAVQMFDSLARKRGIVKQVLTKDELKDFYEQLTDQGFDNRLRTFFDMVDKNADGRLTAEEVKEIIALSASANKLSKIKERADEYTALIMEELDPTNLGYIEMEDLEALLLQSPSEAAARS	soluble
GKVEERWTKTTDGKQMLSWVIYPVNFDANKKYPTLLFCEGGPQSPVSQFWSYRWNFQIMAANDYIIIAPNRRGLPGFGMEWLEQISGDYGGQCMKDYLSAIDDISKEPYVDTNRLGCVGASFGGFSVYWLAGHHDKRFKAFIAHDGIFNMEQQYLETEEMWFANWDMGGAYWDKNNATAQRTFANSPHRFVDKWDTPILCIHGEKDYRILASQGMSAFNAAVLRGVPAELLLYPDENHWVLKPQNGVLWQRTFFSWLDKWLK	not soluble
MSLCDVLQMARSTYYYEAKIRDDQDEELSELIVDIFKNSRDNYGQRKIKIELRKKGWTVSRRRIGRIMKEQGLVSKYTVAQFKPAKTSCNESEIGNTLNREFNQEQELKVVVSDLTYVRVQQKWHYICVLVDLYNREIIGYSAGPHKSAELVQRAFASVKYNLQRLELFHTDRGSEFKNKLIDQALETFGIERSLSEKGTPYDNAVAEATFKTIKTEFVRGAVFSSQQELDLELFDYVHWFNTIRIHGSLDYLTPTEYKLMNLEGHHHHHH	not soluble
GSHMDYNKRSSVSTVPNAAPIRVGFVGLNAAKGWAIKTHYPAILQLSSQFQITALYSPKIETSIATIQRLKLSNATAFPTLESFASSSTIDMIVIAIQVASHYEVVMPLLEFSKNNPNLKYLFVEWALACSLDQAESIYKAAAERGVQTIISLQGRKSPYILRAKELISQGYIGDINSIEIAGNGGWYGYERPVKSPKYIYEIGNGVDLVTTTFGHTIDILQYMTSSYFSRINAMVFNNIPEQELIDERGNRLGQRVPKTVPDHLLFQGTLLNGNVPVSCSFKGGKPTKKFTKNLVIDIHGTKGDLKLEGDAGFAEISNLVLYYSGTRANDFPLANGQQAPLDPGYDAGKEIMKVYHLRNYNAIVGNIHRLYQSISDFHFNTKKIPELPSQFVMQGFDFEGFPTLMDALILHRLIESVYKSNMMGSTLNVSNISHYSL	soluble
MKFELDTTDGRARRGRLVFDRGVVETPCFMPVGTYGTVKGMTPEEVEATGAQIILGNTFHLWLRPGQEIMKLHGDLHDFMQWKGPILTDSGGFQVFSLGDIRKITEQGVHFRNPINGDPIFLDPEKSMEIQYDLGSDIVMIFDECTPYPADWDYAKRSMEMSLRWAKRSRERFDSLGNKNALFGIIQGSVYEDLRDISVKGLVDIGFDGYAVGGLAVGEPKADMHRILEHVCPQIPADKPRYLMGVGKPEDLVEGVRRGIDMFDCVMPTRNARNGHLFVTDGVVKIRNAKYKSDTGPLDPECDCYTCRNYSRAYLHHLDRCNEILGARLNTIHNLRYYQRLMAGLRKAIEEGKLESFVTDFYQRQGREVPPLNVD	soluble
MGSDKIHHHHHHMSRRDEGNMVADAGALLPNGDTVSTDAIKVPAGRVNRLMRLGGLAAGIAGGATLQAIAGIARGTRPDARSLLASPANVRRVADELARMRGAAMKIGQLLSMDAGEVLPPELAQILARLRDRAHIMPPSQLGQVLEREWGAGWRRQFKRFDVRPIAAASIGQVHRARTRDGRDLAIKVQYPGVARSIDSDVSNVGALLRLSGLLPKGFDISPYLAEARRQLHEETDYAREGAQLKRFAEWLTDSDTFVVPQYHADLSTAQILAMSYVAGQPIETLADADAATRNRVMTALVDLSLREVFHFGAMQSDPNFANYRYVPQSGRIVLLDFGAARDLHPLVTKSYADMLRSGLVGDDHGIWDAARALGLISDGPDIGSSEARLLALIAGVFEVLRAQEFDFADQTLIRALNEEGMALAQSGYHPPSLPMDVLYLQRKFGGLFLLGNRLRTKLCLRDIIDPYL	not soluble
